Data published in patent US20230002480A1.

Experiments:
Assay in all cases: cell-based or functional assay
[1] = molecular target: HIV-1 Env of pseudovirus HIV-001428-2.42 (HIV-1)
[2] = molecular target: HIV-1 Env of pseudovirus HIV-16055-2.3 (HIV-1)
[3] = molecular target: HIV-1 Env of pseudovirus CNE58 (HIV-1)
[4] = molecular target: HIV-1 Env of pseudovirus X1193_c1 (HIV-1)
[5] = molecular target: HIV-1 Env of pseudovirus 6480.v4.c25 (HIV-1)
[6] = molecular target: HIV-1 Env of pseudovirus CNE30 (HIV-1)
[7] = molecular target: HIV-1 Env of pseudovirus CAP45.2.00.G3 (HIV-1)
[8] = molecular target: HIV-1 Env of pseudovirus 3817.v2.c59 (HIV-1)
[9] = molecular target: HIV-1 Env of pseudovirus 3103.v3.c10 (HIV-1)
[10] = molecular target: HIV-1 Env of pseudovirus 6240_08_TA5_4622 (HIV-1)
[11] = molecular target: HIV-1 Env of pseudovirus 6244_13_B5_4576 (HIV-1)
[12] = molecular target: HIV-1 Env of pseudovirus 0260.v5.c36 (HIV-1)
[13] = molecular target: HIV-1 Env of pseudovirus 211-9 (HIV-1)
[14] = molecular target: HIV-1 Env of pseudovirus WITO4160.33 (HIV-1)
[15] = molecular target: HIV-1 Env of pseudovirus BF1266.431a (HIV-1)
[16] = molecular target: HIV-1 Env of pseudovirus 246F C1G (HIV-1)
[17] = molecular target: HIV-1 Env of pseudovirus Ce1172_H1 (HIV-1)
[18] = molecular target: HIV-1 Env of pseudovirus 620345.c01 (HIV-1)
[19] = molecular target: HIV-1 Env of pseudovirus 191955_A11 (HIV-1)
[20] = molecular target: HIV-1 Env of pseudovirus X2131_C1_B5 (HIV-1)
[21] = molecular target: HIV-1 Env of pseudovirus 0815.v3.c3 (HIV-1)
[22] = molecular target: HIV-1 Env of pseudovirus 6535.3 (HIV-1)
[23] = molecular target: HIV-1 Env of pseudovirus SC422661.8 (HIV-1)
[24] = molecular target: HIV-1 Env of pseudovirus T255-34 (HIV-1)
[25] = molecular target: HIV-1 Env of pseudovirus CNE8 (HIV-1)
[26] = molecular target: HIV-1 Env of pseudovirus ZM109F.PB4 (HIV-1)
[27] = molecular target: HIV-1 Env of pseudovirus CAAN5342.A2 (HIV-1)
[28] = molecular target: HIV-1 Env of pseudovirus Q769.d22 (HIV-1)
[29] = molecular target: HIV-1 Env of pseudovirus Ce0393_C3 (HIV-1)
[30] = molecular target: HIV-1 Env of pseudovirus 1394C9G1(Rev-) (HIV-1)
[31] = molecular target: HIV-1 Env of pseudovirus RHPA4259.7 (HIV-1)
[32] = molecular target: HIV-1 Env of pseudovirus THRO4156.18 (HIV-1)
[33] = molecular target: HIV-1 Env of pseudovirus 9004SS_A3_4 (HIV-1)
[34] = molecular target: HIV-1 Env of pseudovirus C3347.c11 (HIV-1)
[35] = molecular target: HIV-1 Env of pseudovirus BJOX025000.01.1 (HIV-1)
[36] = molecular target: HIV-1 Env of pseudovirus CAP210.2.00.E8 (HIV-1)

Substance: PGT121 (antibody)
- IC50 [1]: 0.014 µg/mL
- IC80 [1]: 0.051 µg/mL
- IC50 [2]: 0.153 µg/mL
- IC80 [2]: 4.8 µg/mL
- IC50 [3]: > 50 µg/mL
- IC80 [3]: > 50 µg/mL
- IC80 [4]: 0.086 µg/mL
- IC50 [5]: < 0.001 µg/mL
- IC80 [5]: 0.004 µg/mL
- IC50 [6]: 0.078 µg/mL
- IC80 [6]: 0.291 µg/mL
- IC50 [7]: 1.63 µg/mL
- IC80 [7]: > 50 µg/mL
- IC50 [8]: 18.9 µg/mL
- IC80 [8]: > 50 µg/mL
- IC50 [9]: 0.009 µg/mL
- IC80 [9]: 0.028 µg/mL
- IC50 [10]: 0.033 µg/mL
- IC80 [10]: 0.127 µg/mL
- IC50 [11]: 0.061 µg/mL
- IC80 [11]: 0.347 µg/mL
- IC50 [12]: 0.053 µg/mL
- IC80 [12]: 0.197 µg/mL
- IC50 [13]: 0.852 µg/mL
- IC80 [13]: 4.2 µg/mL
- IC50 [14]: 0.334 µg/mL
- IC80 [14]: 2.35 µg/mL
- IC50 [15]: > 50 µg/mL
- IC80 [15]: > 50 µg/mL
- IC50 [16]: 0.041 µg/mL
- IC80 [16]: 0.14 µg/mL
- IC80 [17]: 0.036 µg/mL
- IC50 [18]: > 50 µg/mL
- IC80 [18]: > 50 µg/mL
- IC50 [19]: > 50 µg/mL
- IC80 [19]: > 50 µg/mL
- IC50 [20]: 0.004 µg/mL
- IC80 [20]: 0.023 µg/mL
- IC50 [21]: 0.025 µg/mL
- IC80 [21]: 0.111 µg/mL
- IC50 [22]: 0.002 µg/mL
- IC80 [22]: 0.008 µg/mL
- IC50 [23]: 0.038 µg/mL
- IC80 [23]: 0.177 µg/mL
- IC50 [24]: 18.7 µg/mL
- IC80 [24]: > 50 µg/mL
- IC50 [25]: > 50 µg/mL
- IC80 [25]: > 50 µg/mL
- IC50 [26]: 8.64 µg/mL
- IC80 [26]: > 50 µg/mL
- IC50 [27]: 0.007 µg/mL
- IC80 [27]: 0.023 µg/mL
- IC50 [28]: > 50 µg/mL
- IC80 [28]: > 50 µg/mL
- IC50 [29]: > 50 µg/mL
- IC80 [29]: > 50 µg/mL
- IC50 [30]: 0.264 µg/mL
- IC80 [30]: 1.95 µg/mL
- IC80 [31]: 0.035 µg/mL
- IC50 [32]: > 50 µg/mL
- IC80 [32]: > 50 µg/mL
- IC50 [33]: < 0.001 µg/mL
- IC80 [33]: 0.003 µg/mL
- IC50 [34]: > 50 µg/mL
- IC80 [34]: > 50 µg/mL
- IC50 [35]: > 50 µg/mL
- IC80 [35]: > 50 µg/mL
- IC50 [36]: 26.3 µg/mL
- IC80 [36]: > 50 µg/mL
